According to US20230080534A1, “SEMG2 ANTIBODY AND USE THEREOF” (SHANGHAI BIOTROY BIOTECHNIQUE CO., LTD., priority 2020, published 2023):

How the values were obtained:
[1] = target: SEMG2(497-509) polypeptide … (human); test: ELISA, immobilized peptide …
[2] = target: human SEMG2 full-length protein (human) (UniProt Q02383); test: ELISA, immobilized antigen SEMG2 (1-582)
[3] = target: SEMG2(354-403) fragment (human); test: ELISA, immobilized antigen SEMG2 (354-403)
[4] = target: SEMG2(442-453) fragment (human); test: ELISA, immobilized antigen SEMG2 (442-453)
[5] = target: SEMG2(497-509) polypeptide … (human); test: ELISA, immobilized antigen SEMG2 (497-509)
[6] = target: SEMG2(563-574) fragment (human); test: ELISA, immobilized antigen SEMG2 (563-574)
[7] = target: human SEMG2 full-length protein (human) (UniProt Q02383); test: ELISA, plate coated with SEMG2 protein; fit value printed for the flat control curve (see non_binding); the EC50 table prints no unit, the axis is log (antibody concentration, nM)

Sequence of human SEMG2 full-length protein (human) (Q02383 24-582 limits assumed): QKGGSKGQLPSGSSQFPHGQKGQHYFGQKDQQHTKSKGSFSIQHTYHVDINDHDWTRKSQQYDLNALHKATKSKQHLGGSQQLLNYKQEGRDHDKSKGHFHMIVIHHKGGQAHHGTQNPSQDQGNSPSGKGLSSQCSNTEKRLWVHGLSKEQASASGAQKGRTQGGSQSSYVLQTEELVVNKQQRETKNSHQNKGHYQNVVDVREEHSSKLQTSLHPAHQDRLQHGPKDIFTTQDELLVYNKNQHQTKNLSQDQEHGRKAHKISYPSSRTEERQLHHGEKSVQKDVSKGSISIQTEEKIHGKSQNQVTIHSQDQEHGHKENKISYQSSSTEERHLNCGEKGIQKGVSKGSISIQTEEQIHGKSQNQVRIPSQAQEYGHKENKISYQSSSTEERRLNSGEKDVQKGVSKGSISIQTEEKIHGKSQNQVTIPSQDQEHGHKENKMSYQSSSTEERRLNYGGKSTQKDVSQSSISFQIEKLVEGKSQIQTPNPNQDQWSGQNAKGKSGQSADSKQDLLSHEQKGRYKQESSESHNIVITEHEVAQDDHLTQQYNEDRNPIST
Sequence of SEMG2(354-403) fragment (human) (peptide, as listed by the source): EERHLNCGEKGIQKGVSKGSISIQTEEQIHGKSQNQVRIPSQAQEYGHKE

For “HPA042767 (rabbit polyclonal antibody against SEMG2(354-403), Sigma Aldrich)”, the OD450 absorbance [1] was 0.005, the A450 absorbance [2] was 1.16 and the A450 absorbance [3] was 1.14. The A450 absorbance [4] was 0.007, the A450 absorbance [5] was 0.002 and the A450 absorbance [6] was 0.011.
“HPA042835 (rabbit polyclonal antibody against SEMG2(563-574), Sigma Aldrich)” showed an OD450 absorbance [1] of 0.005, an A450 absorbance [2] of 1.17 and an A450 absorbance [3] of 0.009. The A450 absorbance [4] was 0.002, the A450 absorbance [5] was 0.009 and the A450 absorbance [6] was 1.16.
mIgG1 (antibody) was tested, and the EC50 [7] was 0.0885 nM.
